Experimental data as given in the DeepSol protein solubility set.

Assay: soluble on expression in E. coli; label from the status in PepcDB or PDB records

Which “soluble on expression in E. coli” value does the source give for “VTSSLPTVQRVIQNALEVSQLKYSQHPRPGGAPPALIVELPGERKLKINTILSVGEHSVRVEAFVCRKPDENREDVYRFLLRRNRRLYGVAYTLDNVGDIYLVGQMALSAVDADEVDRVLGQVLEVVDSDFNALLELGFRSSIQREWQWRLSRGESLQNLQAFAHLRPTTMQSAQRDEKELGG” here?
Its value is “soluble”.

Which “soluble on expression in E. coli” value does the source give for “VVIPSPCCMFFVSKRIPENRVVSYQLSSRSTCLKAGVIFTTKKGQQSCGDPKQEWVQRYMKNLDAKQKKASPR” here?
Its value is “soluble”.

Which “soluble on expression in E. coli” value does the source give for “VVKRSRATRLSPSIWSGWESPQCRSIRARLLLPRGRSRPPNADCCWNQLAVTPDTRMPASSAAGRDAAAYDAWYDSPTGRPILATEVAALRPLIEVFAQPRLEIGVGTGRFADLLGVRFGLDPSRDALMFARRRGVLVANAVGEAVPFVSRHFGAVLMAFTLCFVTDPAAIFRETRRLLADGGGLVIGFLPRGTPWADLYALRAARGQPGYRDARFYTAAELEQLLADSGFRVIARRCTLHQPPGLARYDIEAAHDGIQAGAGFVAISAVDQAHEPKDDHPLESE” here?
Its value is “not soluble”.

Which “soluble on expression in E. coli” value does the source give for “WLDHVQNLVPGLDRQGLLEACEFARESEQRAIAAQNSWAEGTSSFQTGLEIAEILADLKLDQESLVAAVIYRGVREGKITLEAVNKHFGPVVAKLIEGVLRMAAISASLNPRHSMVLGTQAQVENLRKMLVAMVDDVRVALIKLAERTCAIRAVKNADEEKRHRVAREVFDIYAPLAHRLGIGHIKWELEDLSFRYLEPDQYKQIAKLLHERRLDREQYIANVMSQLKEALAATGVQADLSGRAKHIYSIWRKMQRKGLDFSQIYDVRAVRVLVPEMRDCYTALGIVHTLWRHIPKEFDDYIANPKENGYRSLHTAVIGPEGKVLEVQIRTHSMHEEAELGVCAHWRYKGTDVKASSNHYEEKISWLRQVLEWHEELGDIGGLAEQLRVDIEPDRVYVFTPDGHAIDLPKGATPLDFAYRVHTEVGHNCRGAKINGRIVPLNYSLQTGEQVEIITGKHSGPSRDWLNSNLGYVTTSRARAKIVHWFKLQARDQNVAAGKALIERELSRLALPPVDFDRLAEKANVRTAEDMFAALGAGDLRLAHLVNYAQQLVEPDRDSEQLELIPRKPSKIGHGKRGDVQIQGVGNLLTQMAGCCQPLPGDPIVGYITLGRGVTIHRQDCATALQLAGREPERMIQVSWGPEPVRTYPVDIAIRAYDRSGLLRDVSQVLLNERINVLAVNTRSNKEDNTATMQLTIEIPGLDALGRLLARVSQLPNIIEARRNR” here?
Its value is “not soluble”.

For “WLSPEIEALSHGTRLNNIDMYPALQRLLPWPEATNFEEFAPSHLSVPSGNQHRLDYSSGRPVIRVKLQECFGLEESPQLCGIPVQFHLLSPAGRPLAVTDDLRSFWSGPYSQVRAEMRGRYPKHPWPEDPWTAPATARTKNRM”, which “soluble on expression in E. coli” value is on record?
Its value is “not soluble”.

With “WVQPITAQKPSLTLWLDDKMFTGLINTGADVTIIKLEDWPPNWPITDTLTNLRGIGQSNNPKQSSKYLTWRDKENNSGLIKPFVIPNLPVNLWGRDLLSQMKIMMAS” as the sequence, how does the “soluble on expression in E. coli” value read?
Its value is “soluble”.

With “YCEFLNNELRAHASDLLPTAPVPTMMLDRAWDEATLHNITQLIYDVRKDDALFRREISKPGAFDLMRKNYWDRREYSAVTLVGNETCNLAPLAELGFQIEVSQ” as the sequence, how does the “soluble on expression in E. coli” value read?
Its value is “not soluble”.

With “YDKRIHRFRKGWNSLIPTHNKIQYAGNMGMFSFGTGWDYGKRDQWETDLFFGFIPKHDSHRAKMTMTLKQNYMPWSLELGKGFSTEPLACGIYFNTVFGHEFWVHEPSRYPEGYYGFSSKIRTHIFLGQRLTYDIDRERRFFAKSVTLFYELSTCDLLLISRVTNSYLRARDYLSLSFGLKFQWL” as the sequence, how does the “soluble on expression in E. coli” value read?
Its value is “not soluble”.

For “YDPSKDPSSSLARRNLIIGLMEKAGFITHAQAVRAKATPLVLHYTPVTQQGLAPYFTEYIRQTIKSSSMLEGVNVYRDGL”, which “soluble on expression in E. coli” value is on record?
The value was “not soluble”.

Which “soluble on expression in E. coli” value does the source give for “YFNLQFGANLDVYLTKKWSVGADLLLSFKTYQYKNTLLGYSELTMKENQLWLELPIVLKYTMGQKKLRYYLQAGGAVSMILSSNSNIVRKDAATQSNQAIGPDINTRDLRNMFNYSLVGGGGIRYKAGYGYLVLDVKYMYGLNNISDMDNKYSNDELIYKYGYIDNDFTLNSLMFSIGYYKSFYKPKKLPTYEK” here?
Its value is “not soluble”.

For “YIDVKRMMYTLIVSFVFSRVVDSVLDGAYAAKGILIVSNHSEEIGQSLMASLERGVTYLNGEGAYSQVEKRVLYTVVSPREIMEVKRIANEIDEKAFVSIINVHEAIGEGFTYAKPSKQRRFKLKQ”, which “soluble on expression in E. coli” value is on record?
Its value is “not soluble”.

With “YIKMISNAKRSILIQTPYFIPDASLLDALRIACLSGIDVNIMIPNKPDHAFVYWATLSYIGDLLKAGATVYIYDNGFIHAKTIVVDDEIASVGTANIDVRSFRLNFEVNAFIYDITIAKKLVSTFKEDLLVSRKFTYEEYLQRPLWIR” as the sequence, how does the “soluble on expression in E. coli” value read?
Its value is “not soluble”.

With “YIRKRVPLLCLGKRWFVFDKSLMKKTISYGSTSAMQQVCLQIGKTIIQAVVNTQGVSVMAAFTAVNRVDDFAYIPQQNIGHAMTTFIAQNKGAGKRERIRRGLQ” as the sequence, how does the “soluble on expression in E. coli” value read?
The value was “not soluble”.

For “YNPLYSIENATSRRDTVLQNMVAAGKISQKQANEAKKVGMGNRISDTYVAKTDDYQYPSYFDAVISEASSVYGISEKDIVNNGY”, which “soluble on expression in E. coli” value is on record?
The value was “not soluble”.

For “YSSRRFEKKKIHFPSRRRRFVDYLINAQRSEKLELNSQQQLGNRHSGSSELVKSESRKKAKSSNQKEKVKPEKRGRATATTGAGPTIDQSLKGPTGTTMASERGMTMTQTIQKEKSIKKKKSEKDERKRAKEVGNEEAAADNQTVTQGNDTTTTQGPSSMFPADLSKKHRLGLQKVKERAVEVPEKKKTKNNE”, which “soluble on expression in E. coli” value is on record?
The value was “not soluble”.

Which “soluble on expression in E. coli” value does the source give for “YVSTDGDDIYVGKNNKQNDYLTNKKAKKTHTWLHTKDIPGSHVVIFNDAPSDTTIKEAAMLAGYFSKAGNSGQIPVDYTLIKNVHK” here?
Its value is “not soluble”.

Which “soluble on expression in E. coli” value does the source give for “YVTNDLANSMKDRGTMLADSLRVDFAIINDPSKIPVSGTGPYTYTFYVKNIGKDSIAFSSNSIQVFIDGNIIPPANLTFTDVNGNSISSLDPGEVGAIQVTLGNALDPGYHRIQVVLENGKERVLIFKI” here?
Its value is “not soluble”.

With “YVWDTKMNVGLRVGAAAEFMIGSRGFYLAPGLNYTMKGSKTEWDIPEMVPGTYITMVSTRLHYLQLPINAGMRFDLMNDMAVSIEAGPFLAYGIYGTYRQKLEGWKPNNYSTEFFGPTLGGPTNIRWDIGANIIAAFHYKRYYIQIGYEHGFVDIVSGGGSDIPRLNDNRQSSSTTALREKGNNEYAYNRDFFVGIGYRF” as the sequence, how does the “soluble on expression in E. coli” value read?
The value was “not soluble”.
